{
  "source": "paper PMC10127204",
  "about": "“Unique Initiation and Termination Mechanisms Involved in the Biosynthesis of a Hybrid Polyketide-Nonribosomal Peptide Lyngbyapeptin B Produced by the Marine Cyanobacterium Moorena bouillonii” (ACS Chemical Biology, 2023)",
  "type_in_all_cases": "biochemical, Moorena bouillonii",
  "details_in_all_cases": "Fe2+ and molecular oxygen required",
  "key": {"[1]": {"substrate": "CC1=N[C@H](C(=O)O)CS1", "assay": "kinetic analysis of 2-methylthiazole formation"}, "[2]": {"substrate": "CC1=N[C@@H](C(=O)O)CS1", "assay": "kinetic analysis of 2-methylthiazole formation"}, "[3]": {"substrate": "O=C(O)[C@@H]1CSC(c2ccccc2)=N1", "assay": "kinetic analysis of 2-phenylthiazole formation"}},
  "data": [
    {"protein": "LynB7 (Moorena bouillonii) (protein) MVKTYEIIDADSHVLEPLDLWEKYLEPEFKHFAPKEDYKLEGEPILYKFNPSDFVESEAAKRAQEDPDIYKGGYDPKARVELMEQMGSDMTFLYPTIGLWMWSVDTMDSKLAGAFVRSYNNWLHDFCNYAPQKLKGIGAINQHDPEEMVPELQRIVEFGWKAVFIRPNPVKGRILSDPVYEPFWSECERLNVAVTVHEGTHSRLPTTGADRFDSRFALHACSHPMEQMMALLALIEGGVLERHPQLRVGFFESGCGWLPYWLWRLDEEYENLYYEVKDNVKMKPSEYFHRQCYTGFEVDEPYLAELIEYIGADKLLFGSDFPHMDHPNFIESVDETLALREKLPEDVIKKILHDNPLRYYGLT", "values": [
      {"measurement": "Km", "setting": "[1]", "result": "2100 ± 200", "unit": "µM"},
      {"measurement": "kcat", "setting": "[1]", "result": "17 ± 0.7", "unit": "s^–1"},
      {"measurement": "Km", "setting": "[2]", "result": "3600 ± 700", "unit": "µM"},
      {"measurement": "kcat", "setting": "[2]", "result": "1.3 ± 0.1", "unit": "s^–1"},
      {"measurement": "Km", "setting": "[3]", "result": "1500 ± 300", "unit": "µM"},
      {"measurement": "kcat", "setting": "[3]", "result": "11 ± 0.5", "unit": "s^–1"}
    ]}
  ]
}
